The record followed here is patent US20130096058A1.

The target in this assay is Murine CD40L on the Th2 cell line D10.G4.1 (mouse) (UniProt P27548). Kind of assay: cell-based or functional assay.
Sequence of Murine CD40L on the Th2 cell line D10.G4.1 (mouse) (P27548 whole entry): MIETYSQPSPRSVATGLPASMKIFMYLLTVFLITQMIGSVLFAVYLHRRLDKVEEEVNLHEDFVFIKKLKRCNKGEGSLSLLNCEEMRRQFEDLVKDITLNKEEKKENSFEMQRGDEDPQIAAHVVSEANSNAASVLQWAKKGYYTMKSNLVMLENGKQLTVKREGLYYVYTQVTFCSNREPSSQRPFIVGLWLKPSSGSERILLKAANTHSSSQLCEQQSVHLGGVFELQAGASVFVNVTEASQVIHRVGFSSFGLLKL

On to MR1 antibody, for which the IC50 of inhibition of MuCD40L-induced CD86 expression on B cells is 100 µM.
